Results as given in IntAct's records for PubMed 28827714.

B1: Interleukin-17F (Homo sapiens), Q96PD4 (parent)
chain: MTVKTLHGPAMVKYLLLSILGLAFLSEAAARKIPKVGHTFFQKPESCPPVPGGSMKLDIGIINENQRVSMSRNIESRSTSPWNYTVTWDPNRYPSEVVQAQCRNLGCINAQGKEDISMNSVPIQQETLVVRRKHQGCSVSFQLEKVLVTVGCTCVTPVIHHVQ
B2: Interleukin-17F (Homo sapiens), Q96PD4 (parent)
chain: B1 chain
partner: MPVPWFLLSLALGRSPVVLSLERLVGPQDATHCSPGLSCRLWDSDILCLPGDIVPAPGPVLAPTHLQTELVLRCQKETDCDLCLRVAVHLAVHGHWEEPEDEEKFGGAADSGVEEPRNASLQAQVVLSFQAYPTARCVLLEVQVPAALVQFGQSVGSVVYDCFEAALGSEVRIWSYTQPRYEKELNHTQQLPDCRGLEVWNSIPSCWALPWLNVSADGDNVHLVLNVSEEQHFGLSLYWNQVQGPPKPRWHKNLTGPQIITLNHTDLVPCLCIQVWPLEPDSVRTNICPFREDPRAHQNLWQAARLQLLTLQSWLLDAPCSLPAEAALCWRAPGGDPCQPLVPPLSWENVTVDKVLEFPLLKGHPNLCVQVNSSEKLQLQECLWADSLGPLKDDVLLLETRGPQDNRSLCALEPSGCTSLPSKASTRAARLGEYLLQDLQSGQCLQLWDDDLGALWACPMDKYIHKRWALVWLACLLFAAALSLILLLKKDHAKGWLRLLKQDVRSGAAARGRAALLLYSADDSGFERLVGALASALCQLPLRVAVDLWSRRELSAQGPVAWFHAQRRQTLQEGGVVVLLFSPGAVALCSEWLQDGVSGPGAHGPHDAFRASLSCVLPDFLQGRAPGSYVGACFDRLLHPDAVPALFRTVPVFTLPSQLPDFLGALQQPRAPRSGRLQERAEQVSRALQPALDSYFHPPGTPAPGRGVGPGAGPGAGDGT

Variants of: B1
Conditions: with IL17RA

Variant | effect of a mutation on the interaction
MTVKTLHGPAMVKYLLLSILGLAFLSEAAARKIPKVGHTFFQKPESCPPVPGGSMKLDIGIINENQRVSMSRNIESASTSPWNYTVTWDPNRYPSEVVQAQCRNLGCINAQGKEDISMNSVPIQQETLVVRRKHQGCSVSFQLEKVLVTVGCTCVTPVIHHVQ [R77A] | decreasing interaction strength

Variants of: B2
Conditions: with IL17RC

Variant | effect of a mutation on the interaction
MTVKTLHGPAMVKYLLLSILGLAFLSEAAARKIPKVGHTFFQKPESCPPVPGGSMKLDIGIINENQRVSMSRNIESASTSPWNYTVTWDPNRYPSEVVQAQCRNLGCINAQGKEDISMNSVPIQQETLVVRRKHQGCSVSFQLEKVLVTVGCTCVTPVIHHVQ [R77A] | decreasing interaction strength
